The values that follow come from patent US6005086, “Farnesoid activated receptor polypeptides, and nucleic acid encoding the same” (The Salk Institute for Biological Studies).

For data set [1], the target named is T1, FAR-RXRalpha heterodimer (Rattus norvegicus (FAR) / Homo sapiens …, UniProt Q62735;P19793 Q62735:1-469,P19793:1-462). The data set can be described thus: EMSA; mutated element not recognized. The following applies: tags: rabbit reticulocyte lysate TNT, Promega; label: 32P (Klenow). How it is done:
(§1) It was next sought to determine the DNA binding properties of the FAR-RXRα complex. Because FAR and EcR share 100% sequence identity in the DNA recognition helix (P-box, Cys^141-Lys^145), it was examined whether the FAR-RXRα complex could recognize the hsp27 […] (EcRE; Yao et al., *Cell* 71:63–72 (1992)). Electrophoretic mobility shift analysis was performed using [^32P]-labeled DNA and in vitro translated FAR and RXRα. Proteins used in electrophoretic mobility shift assays were prepared by translation in a rabbit reticulocyte lysate system (TNT, Promega). Proteins (1 µl) were incubated for 20 minutes at room temperature with 100,000 cpm of Klenow-labeled probes in 10 mM Tris pH 8, 100 mM KCl, 6% glycerol, 0.05% NP-40, 1 mM DTT, 100 ng/µl poly dI dC and then electrophoresed through a 5% polyacrylamide gel in 0.5×TBE. The gel was autoradiographed for 1.5 hours with an intensifying screen.
(Mobility shift assays separate free from complexed probe on a gel.)

In data set [2] the target is T1, FAR-RXRalpha heterodimer. The data set can be described thus: cell_activity; 50 uM JH III; 76-fold with 100 nM LG69, 212-fold with both; parental MTV reporter lacking EcREs not activated by JH III. The following applies: tags: CMV expression vectors in CV-1 cells. How it is done: Thus, with reference to FIG. 5A, CV-1 cells were transiently transfected with hsp27-EcRE×5 MTV-luciferase alone (−) or with expression vectors for rat FAR and/or human RXRα. Reporter activity was assayed after treating cells with or without 50 µM JH III.

The target in data set [3] is T1, FAR-RXRalpha heterodimer. Nature of the data set: EMSA; half-site substitutions abolish binding. The following applies: tags: rabbit reticulocyte lysate TNT, Promega; label: 32P (Klenow). The procedure: as §1
The target in data set [4] is T1, FAR-RXRalpha heterodimer. The data set can be described thus: EMSA; cooperative binding. The following applies: tags: rabbit reticulocyte lysate TNT, Promega; label: 32P (Klenow). The procedure: as §1
In the next data set the target is RXRalpha (UniProt P19793 P19793:1-462). The data set can be described thus: EMSA; RXRalpha alone, no high affinity binding. The following applies: tags: rabbit reticulocyte lysate TNT, Promega; GenBank X52773 cited for human RXRalpha; label: 32P (Klenow). How it is done: as §1
RXRalpha, sequence (P19793 whole entry, one chain of several): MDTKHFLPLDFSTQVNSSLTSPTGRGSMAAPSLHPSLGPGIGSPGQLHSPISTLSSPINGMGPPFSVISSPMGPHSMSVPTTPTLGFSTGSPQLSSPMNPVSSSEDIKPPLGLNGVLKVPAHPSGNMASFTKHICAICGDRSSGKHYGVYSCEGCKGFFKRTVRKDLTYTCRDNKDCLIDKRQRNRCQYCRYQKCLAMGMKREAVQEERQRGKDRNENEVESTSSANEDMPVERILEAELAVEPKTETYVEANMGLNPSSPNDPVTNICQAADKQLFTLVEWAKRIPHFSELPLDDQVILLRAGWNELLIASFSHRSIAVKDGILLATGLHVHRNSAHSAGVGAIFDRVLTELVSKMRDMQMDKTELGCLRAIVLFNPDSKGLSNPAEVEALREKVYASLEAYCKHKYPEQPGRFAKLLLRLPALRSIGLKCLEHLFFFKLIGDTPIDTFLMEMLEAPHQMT

T1 sequence (Q62735 whole entry, chain 1 of 2): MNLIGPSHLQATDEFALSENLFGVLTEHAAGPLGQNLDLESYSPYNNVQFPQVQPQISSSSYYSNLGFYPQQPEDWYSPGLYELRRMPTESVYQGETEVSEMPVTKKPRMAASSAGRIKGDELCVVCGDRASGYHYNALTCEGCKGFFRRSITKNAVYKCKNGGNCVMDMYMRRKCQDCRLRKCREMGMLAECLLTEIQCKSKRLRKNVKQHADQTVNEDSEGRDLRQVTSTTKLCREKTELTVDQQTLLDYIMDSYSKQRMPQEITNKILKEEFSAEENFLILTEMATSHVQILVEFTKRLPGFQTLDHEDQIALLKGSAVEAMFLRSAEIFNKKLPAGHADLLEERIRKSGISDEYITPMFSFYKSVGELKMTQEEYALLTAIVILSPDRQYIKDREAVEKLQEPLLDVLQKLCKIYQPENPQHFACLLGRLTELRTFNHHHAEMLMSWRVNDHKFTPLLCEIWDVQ
T1 sequence (P19793 whole entry, chain 2 of 2): as the sequence (P19793 whole entry, one chain of several) above

B1: EcREm (mutated hsp27-EcRE) (dsDNA)
DNA 1: CGTTCAATGCACA
DNA 2: TGTGCATTGAACG
On to B1, for which the binding result with FAR-RXRalpha heterodimer [1] is listed as “no binding”.

B2: hsp27-EcRE x5 MTV-luciferase reporter (dsDNA)
DNA 1: GGTTCAATGCACT
DNA 2: AGTGCATTGAACC
Take B2: the activity with FAR-RXRalpha heterodimer [2] was determined as 17 fold activation.

B3: IR1m (dsDNA)
DNA 1: AGAACAATGTTCT
DNA 2: AGAACATTGTTCT
With B3, in the data set with FAR-RXRalpha heterodimer [3], the binding result was “no binding”.

B4: idealized IR1 (dsDNA)
DNA 1: AGGTCAATGACCT
DNA 2: AGGTCATTGACCT
With B4, in the data set with FAR-RXRalpha heterodimer [4], the binding result is given as “binds”.

B5: hsp27-EcRE (dsDNA)
DNA 1: GGTTCAATGCACT
DNA 2: AGTGCATTGAACC
As to B5, in the data set with RXRalpha, the binding result was “no binding”.
